How the values were obtained:
[1] = molecular target: T1, human GIP receptor (human) (UniProt P48546); assay: cell-based or functional assay
T1 sequence (looked up): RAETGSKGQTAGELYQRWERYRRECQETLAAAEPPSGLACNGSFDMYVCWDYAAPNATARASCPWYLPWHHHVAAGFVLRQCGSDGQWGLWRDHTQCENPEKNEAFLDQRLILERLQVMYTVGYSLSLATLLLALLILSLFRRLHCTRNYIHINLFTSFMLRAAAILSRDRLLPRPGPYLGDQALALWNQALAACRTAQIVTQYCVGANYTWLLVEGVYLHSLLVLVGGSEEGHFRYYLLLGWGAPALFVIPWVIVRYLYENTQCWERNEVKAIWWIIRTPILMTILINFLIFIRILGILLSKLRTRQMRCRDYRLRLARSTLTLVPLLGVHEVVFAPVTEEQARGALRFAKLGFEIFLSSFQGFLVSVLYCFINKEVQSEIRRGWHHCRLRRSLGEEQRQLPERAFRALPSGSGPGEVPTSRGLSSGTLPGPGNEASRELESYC

[2] = molecular target: human glucagon receptor (human) (UniProt P47871); assay: cell-based or functional assay
hGLP-1R = hGLP-1R (Homo sapiens, UniProt P43220); assay: cell-based or functional assay
human GLP-1 receptor = molecular target: T2, human GLP-1 receptor (human, UniProt P43220 24-463); assay: SPA competition vs [125I]-GLP-1, hGLP-1R membranes
T2 construct: whole, on cells; also called hGLP-1R; human glucagon-like peptide-1 receptor
Protocol: The binding buffer contains 25 mM HEPES, pH 7.4, 2.5 mM CaCl₂, 1 mM MgCl₂, 0.1% (w/v) bacitracin, 0.003% (w/v) TWEEN®-20, and Roche Complete™ Protease Inhibitors without EDTA.
(§1) Data are analyzed using four-parameter (curve maximum, curve minimum, IC₅₀, Hill slope) nonlinear regression routines (Genedata Screener, version 12.0.4, Genedata AG, Basal, Switzerland). […] Values for Kᵢ are reported as the geometric mean, with error expressed as the standard error of the mean (SEM) and n is equal to the number of independent replicates (determined in assays performed on different days). Geometric Means are calculated as follows: […]

human GIP receptor = molecular target: T3, human GIP receptor (human, UniProt P48546 22-466); assay: SPA competition vs [125I]-GIP, hGIPR membranes
T3 construct: whole, on cells; also called hGIPR; human glucose-dependent insulinotropic polypeptide receptor
T3 sequence (looked up): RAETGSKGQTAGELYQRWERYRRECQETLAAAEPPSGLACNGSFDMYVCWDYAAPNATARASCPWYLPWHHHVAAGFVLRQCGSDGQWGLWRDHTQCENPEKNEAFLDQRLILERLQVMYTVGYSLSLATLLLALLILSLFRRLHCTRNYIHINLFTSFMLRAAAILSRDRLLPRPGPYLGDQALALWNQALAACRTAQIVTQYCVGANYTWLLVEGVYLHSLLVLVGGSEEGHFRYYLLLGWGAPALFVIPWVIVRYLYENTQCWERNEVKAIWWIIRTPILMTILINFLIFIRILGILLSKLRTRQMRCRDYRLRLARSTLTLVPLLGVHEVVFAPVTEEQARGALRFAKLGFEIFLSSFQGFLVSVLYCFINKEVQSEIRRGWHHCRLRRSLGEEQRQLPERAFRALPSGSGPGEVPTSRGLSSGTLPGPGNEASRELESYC
Protocol: The binding buffer contains 25 mM HEPES, pH 7.4, 2.5 mM CaCl₂, 1 mM MgCl₂, 0.1% (w/v) bacitracin, 0.003% (w/v) TWEEN®-20, and Roche Complete™ Protease Inhibitors without EDTA. […] Plates are sealed and mixed on a plate shaker (setting 6) for 1 minute and read with a PerkinElmer Trilux MicroBeta® scintillation counter after 2.5 to 12 hours of incubation/settling time at room temperature.
as §1

**Q.** What does the source list for “Y-Aib-EGT-αMeF(2F)-TSD-4Pal-SI-αMeL-LD-Orn-IAQ-Aib-EFIK((2-[2-(2-Amino-ethoxy)-ethoxy]-acetyl)2-(γ-Glu)-CO-(CH2)12-CO2H)-αMeY-…((2-[2-(2-Amino-ethoxy)-ethoxyl-acetyl)2-(γ-Glu)-CO-(CH2)12-CO2H)-NH2 (peptide)”?
**A.** cAMP EC50 (1.0% HSA) [1]: 3.55 nM; cAMP Emax (1.0% HSA) [1]: 95.9%; cAMP EC50 (1.0% HSA) [2]: > 9950 nM; cAMP EC50 (1.0% HSA) (hGLP-1R): 40.1 nM; cAMP Emax (1.0% HSA) (hGLP-1R): 98.8%

**Q.** “Y-Aib-EGT-αMeF(2F)-TSD-4Pal-SI-αMeL-LD-Orn-IAQ-Aib-K((2-[2-(2-Amino-ethoxy)-ethoxy]-acetyl)2-(γ-Glu)-CO-(CH2)12-CO2H)FIK((2-[2-(2-Amino-ethoxy)-ethoxy]-acetyl)2-(γ-Glu)-CO-(CH2)12-CO2H)-αMeY-…-NH2 (peptide)” was tested. Which cAMP EC50 (1.0% HSA) [1] did it give?
**A.** 2.32 nM

**Q.** What about the cAMP Emax (1.0% HSA) [1] of the same molecule?
**A.** 86.8%

**Q.** What about the cAMP EC50 (1.0% HSA) [2] of the same molecule?
**A.** > 9950 nM

**Q.** And the cAMP EC50 (1.0% HSA) (hGLP-1R)?
**A.** 18.9 nM

**Q.** What about the cAMP Emax (1.0% HSA) (hGLP-1R) of the same molecule?
**A.** 102%

**Q.** How did the cAMP EC50 (1.0% HSA) [1] turn out when “Y-Aib-EGT-αMeF(2F)-TSD-4Pal-SI-αMeL-LD-Orn-IAQ-Aib-K((2-[2-(2-Amino-ethoxy)-ethoxy]-acetyl)2-CO-(CH2)12-CO2H)FIK((2-[2-(2-Amino-ethoxy)-ethoxy]-acetyl)2-CO-(CH2)12-CO2H)-αMeY-…-NH2 (peptide)” was run?
**A.** 0.866 nM

**Q.** And the cAMP Emax (1.0% HSA) [1]?
**A.** 86.2%

**Q.** What about the cAMP EC50 (1.0% HSA) [2] of the same molecule?
**A.** > 9950 nM

**Q.** What about the cAMP EC50 (1.0% HSA) (hGLP-1R) of the same molecule?
**A.** 13.1 nM

**Q.** And the cAMP Emax (1.0% HSA) (hGLP-1R)?
**A.** 105%

**Q.** For “Y-Aib-EGT-αMeF(2F)-TSD-4Pal-SI-αMeL-LD-Orn-K((2-[2-(2-Amino-ethoxy)-ethoxy]-acetyl)2-(γ-Glu)-(4-(4-tert-butylphenyl)butanoyl))AQ-Aib-EFI-(D-Glu)-K((2-[2-(2-Amino-ethoxy)-ethoxy]-acetyl)2-(γ-Glu)-(4-(4-tert-butylphenyl)butanoyl))…-NH2 (peptide)”, which cAMP EC50 (1.0% HSA) [1] is on record?
**A.** 0.0417 nM

**Q.** And the cAMP Emax (1.0% HSA) [1]?
**A.** 91.9%

**Q.** What about the cAMP EC50 (1.0% HSA) [2] of the same molecule?
**A.** > 9950 nM

**Q.** What about the cAMP EC50 (1.0% HSA) (hGLP-1R) of the same molecule?
**A.** 12 nM

**Q.** What about the cAMP Emax (1.0% HSA) (hGLP-1R) of the same molecule?
**A.** 104%

**Q.** How did the cAMP EC50 (1.0% HSA) [1] turn out when “Y-Aib-EGT-αMeF(2F)-TSD-4Pal-SI-αMeL-LD-Orn-K((2-[2-(2-Amino-ethoxy)-ethoxy]-acetyl)2-(γ-Glu)-(4-(4-tert-butylphenyl)butanoyl))AQ-Aib-EFIE-K((2-[2-(2-Amino-ethoxy)-ethoxy]-acetyl)2-(γ-Glu)-(4-(4-tert-butylphenyl)butanoyl))…-NH2 (peptide)” was run?
**A.** 0.0831 nM

**Q.** And the cAMP Emax (1.0% HSA) [1]?
**A.** 92.4%

**Q.** What about the cAMP EC50 (1.0% HSA) [2] of the same molecule?
**A.** > 9950 nM

**Q.** And the cAMP EC50 (1.0% HSA) (hGLP-1R)?
**A.** 5.79 nM

**Q.** What about the cAMP Emax (1.0% HSA) (hGLP-1R) of the same molecule?
**A.** 102%

**Q.** Which results are given for “Y-Aib-EGT-αMeF(2F)-TSD-4Pal-SI-αMeL-LD-Orn-K((2-[2-(2-Amino-ethoxy)-ethoxy]-acetyl)2-(γ-Glu)-CO-(CH2)12-CO2H)AQ-Aib-EFI-(D-Glu)-αMeY-LIEGGK((2-[2-(2-Amino-ethoxy)-ethoxy]-acetyl)2-(γ-Glu)-CO-(CH2)12-CO2H)-NH2 (peptide)”?
**A.** cAMP EC50 (1.0% HSA) [1]: 2.46 nM; cAMP Emax (1.0% HSA) [1]: 81.2%; cAMP EC50 (1.0% HSA) [2]: > 9950 nM; cAMP EC50 (1.0% HSA) (hGLP-1R): 119 nM; cAMP Emax (1.0% HSA) (hGLP-1R): 87.8%

**Q.** “Y-Aib-EGT-αMeF(2F)-TSD-4Pal-SI-αMeL-LD-Orn-K((2-[2-(2-Amino-ethoxy)-ethoxy]-acetyl)2-(γ-Glu)-CO-(CH2)12-CO2H)AQ-Aib-EFI-(D-Glu)-αMeY-LIEGGK((2-[2-(2-Amino-ethoxy)-ethoxy]-acetyl)2-(γ-Glu)-CO-(CH2)12-CO2H)SSG-NH2 (peptide)” was tested. Which cAMP EC50 (1.0% HSA) [1] did it give?
**A.** 1.22 nM

**Q.** And the cAMP Emax (1.0% HSA) [1]?
**A.** 75.5%

**Q.** And the cAMP EC50 (1.0% HSA) [2]?
**A.** > 9950 nM

**Q.** What about the cAMP EC50 (1.0% HSA) (hGLP-1R) of the same molecule?
**A.** 66.6 nM

**Q.** And the cAMP Emax (1.0% HSA) (hGLP-1R)?
**A.** 97.3%

B1: Y-Aib-EGT-αMeF(2F)-TSD-aMeV-SI-αMeL-LD-Orn-K((2-[2-(2-Amino-ethoxy)-ethoxy]-acetyl)2-(γ-Glu)-CO-(CH2)12-CO2H)AQ-Aib-EFI-(D-Glu)-αMeY-LIEGGK((2-[2-(2-Amino-ethox … (peptide)
peptide: YXEGTXTSDXSIXLDXKAQXEFIXXLIEGGKSSGAPPPS
modifications: Aib2, αMeF(2F)6, αMeV10, αMeL13, Orn16, K17(Z1), Aib20, D-Glu24, αMeY25, K31(Z1), C-term NH2; Z1=AEEA2-(γ-Glu)-CO-(CH2)12-CO2H
**Q.** Which results are given for B1?
**A.** Ki (human GLP-1 receptor): 1.16 nM; Ki (human GIP receptor): 0.0832 nM

B2: Y-Aib-EGT-αMeF(2F)-TSD-4Pal-SI-αMeL-LD-Orn-K((2-[2-(2-Amino-ethoxy)-ethoxy]-acetyl)2-(γ-Glu)-CO-(CH2)10-CO2H)AQ-Aib-EFI-(D-Glu)-αMeY-LIEGGK((2-[2-(2-Amino-ethox … (peptide)
peptide: YXEGTXTSDXSIXLDXKAQXEFIXXLIEGGKSSGAPPPS
modifications: Aib2, αMeF(2F)6, 4Pal10, αMeL13, Orn16, K17(Z1), Aib20, D-Glu24, αMeY25, K31(Z1), C-term NH2; Z1=AEEA2-(γ-Glu)-CO-(CH2)10-CO2H
**Q.** For B2, which Ki (human GLP-1 receptor) is on record?
**A.** 2.99 nM

**Q.** And the Ki (human GIP receptor)?
**A.** 0.145 nM

B3: Y-Aib-EGT-αMeF(2F)-TSDK((2-[2-(2-Amino-ethoxy)-ethoxy]-acetyl)2-(γ-Glu)-CO-(CH2)12-CO2H)SI-αMeL-LD-Orn-K((2-[2-(2-Amino-ethoxy)-ethoxy]-acetyl)2-(γ-Glu)-CO-(CH2 … (peptide)
peptide: YXEGTXTSDKSIXLDXKAQXEFIXXLIEGGPSSGAPPPS
modifications: Aib2, αMeF(2F)6, K10(Z1), αMeL13, Orn16, K17(Z1), Aib20, D-Glu24, αMeY25, C-term NH2; Z1=AEEA2-(γ-Glu)-CO-(CH2)12-CO2H
**Q.** B3 was tested. Which Ki (human GLP-1 receptor) did it give?
**A.** 6.48 nM

**Q.** What about the Ki (human GIP receptor) of the same molecule?
**A.** 0.378 nM

B4: Y-Aib-EGT-αMeF(2F)-TSD-4Pal-SI-αMeL-LD-Orn-K((2-[2-(2-Amino-ethoxy)-ethoxy]-acetyl)2-(γ-Glu)-(10-(4-carboxyphenoxy)decanoyl))AQ-Aib-EFIK((2-[2-(2-Amino-ethoxy)- … (peptide)
peptide: YXEGTXTSDXSIXLDXKAQXEFIKXLIEGGPSSGAPPPS
modifications: Aib2, αMeF(2F)6, 4Pal10, αMeL13, Orn16, K17(Z1), Aib20, K24(Z1), αMeY25, C-term NH2; Z1=AEEA2-(γ-Glu)-(10-(4-carboxyphenoxy)decanoyl)
**Q.** With B4 as the molecule, how does the Ki (human GLP-1 receptor) read?
**A.** 0.777 nM

**Q.** What about the Ki (human GIP receptor) of the same molecule?
**A.** 0.0314 nM

B5: Y-Aib-EGT-αMeF(2F)-TSD-4Pal-SI-αMeL-LD-Orn-K((2-[2-(2-Amino-ethoxy)-ethoxy]-acetyl)2-(γ-Glu)-CO-(CH2)12-CO2H)AQ-Aib-E-3FPhe-I-(D-Glu)-αMeY-LIEGGK((2-[2-(2-Amino … (peptide)
peptide: YXEGTXTSDXSIXLDXKAQXEXIXXLIEGGKSSGAPPPS
modifications: Aib2, αMeF(2F)6, 4Pal10, αMeL13, Orn16, K17(Z1), Aib20, 3FPhe22, D-Glu24, αMeY25, K31(Z1), C-term NH2; Z1=AEEA2-(γ-Glu)-CO-(CH2)12-CO2H
**Q.** B5 was tested. Which Ki (human GLP-1 receptor) did it give?
**A.** 1.52 nM

**Q.** What about the Ki (human GIP receptor) of the same molecule?
**A.** 0.161 nM

— patent US20230265151A1, “GIP/GLP1 CO-AGONIST COMPOUNDS” (priority 2020, published 2023)
